We go through 4 molecules from article PMC7858594, “Specific inhibition of FGF5-induced cell proliferation by RNA aptamers”.

Series [1] has as its target T1, FGF5 (human, UniProt P12034 21-268).
T1 sequence: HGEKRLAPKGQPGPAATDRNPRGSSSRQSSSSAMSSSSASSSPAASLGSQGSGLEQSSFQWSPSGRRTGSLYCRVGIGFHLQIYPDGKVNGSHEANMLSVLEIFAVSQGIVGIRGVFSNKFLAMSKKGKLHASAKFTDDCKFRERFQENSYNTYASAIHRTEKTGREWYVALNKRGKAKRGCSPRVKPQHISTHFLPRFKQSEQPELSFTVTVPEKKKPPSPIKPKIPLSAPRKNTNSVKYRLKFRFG
Description: SPR; 4 eq low-MW heparin; SPR (BIAcore X): 20 mM Tris-HCl pH 7.4, 200 mM NaCl, 5 mM MgCl2, 5 mM CaCl2, 0.05% Tween20, 4 eq low-MW heparin; temperature not stated. Conditions: protein: commercial; label: none; multi-branched loop (predicted).

Series [2] has as its target T2, FGF6 (human, UniProt P10767 38-208).
T2 sequence: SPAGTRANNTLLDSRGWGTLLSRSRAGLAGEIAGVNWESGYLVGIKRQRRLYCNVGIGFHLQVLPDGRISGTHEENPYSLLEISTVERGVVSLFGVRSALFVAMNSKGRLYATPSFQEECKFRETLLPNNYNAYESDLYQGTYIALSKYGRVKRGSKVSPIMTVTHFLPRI
Description: SPR; 100 nM protein, 4 eq low-MW heparin; SPR (BIAcore X): 20 mM Tris-HCl pH 7.4, 200 mM NaCl, 5 mM MgCl2, 5 mM CaCl2, 0.05% Tween20, 4 eq low-MW heparin; temperature not stated. The settings on record: protein: commercial; label: none; multi-branched loop (predicted).

Series [3] addresses FGF2 (human, UniProt P09038 143-288). Described as above. The settings on record: protein: commercial; label: none; multi-branched loop (predicted).
Series [4] deals with FGFR1alpha (IIIc)-Fc chimera (human, UniProt P11362 22-376). Described as above. Conditions: protein: commercial; tags: Fc; chain copies: 2; label: none; multi-branched loop (predicted).
Series [5] deals with FGF1 (human, UniProt P05230 16-155). The description is as above. Conditions: protein: commercial; label: none; multi-branched loop (predicted).
Series [6] addresses T3, FGF4 (human, UniProt P08620 31-206).
T3 sequence: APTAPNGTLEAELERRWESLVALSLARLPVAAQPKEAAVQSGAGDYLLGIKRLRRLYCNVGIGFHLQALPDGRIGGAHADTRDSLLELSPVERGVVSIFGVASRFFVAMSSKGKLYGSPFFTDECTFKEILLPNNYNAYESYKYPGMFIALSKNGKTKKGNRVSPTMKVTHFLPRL
The series is described as above. Conditions: protein: commercial; label: none; multi-branched loop (predicted).

Chain of FGF1 (P05230 16-155): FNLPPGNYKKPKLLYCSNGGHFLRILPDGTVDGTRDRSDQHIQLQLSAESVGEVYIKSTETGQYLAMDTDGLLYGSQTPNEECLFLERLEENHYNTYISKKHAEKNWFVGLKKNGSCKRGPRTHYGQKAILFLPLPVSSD
Chain of FGFR1alpha (IIIc)-Fc chimera (P11362 22-376, change not shown): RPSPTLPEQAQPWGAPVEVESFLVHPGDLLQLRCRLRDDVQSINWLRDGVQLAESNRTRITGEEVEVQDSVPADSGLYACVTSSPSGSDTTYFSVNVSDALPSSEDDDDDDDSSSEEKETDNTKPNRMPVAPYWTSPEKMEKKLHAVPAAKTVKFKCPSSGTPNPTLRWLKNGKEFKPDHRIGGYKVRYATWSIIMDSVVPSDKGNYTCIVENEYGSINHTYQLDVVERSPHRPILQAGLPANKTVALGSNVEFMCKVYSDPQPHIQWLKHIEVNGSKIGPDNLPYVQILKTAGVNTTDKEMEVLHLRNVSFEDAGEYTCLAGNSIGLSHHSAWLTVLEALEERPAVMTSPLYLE
Chain of FGF2 (P09038 143-288): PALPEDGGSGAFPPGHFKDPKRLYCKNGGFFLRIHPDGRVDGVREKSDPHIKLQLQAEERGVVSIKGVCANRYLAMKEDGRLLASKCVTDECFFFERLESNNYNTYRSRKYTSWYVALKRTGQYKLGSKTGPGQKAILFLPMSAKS

B1: F5f1 (structured_RNA)
RNA: GGGCUAGCUGAUCGUACCUCUCCGUACUGACCUACAGAGCGACAUACUAGUGUAUCCAGAUACUAACAGCUAACACCC
modifications: 2'-fluoro pyrimidines (all C and U)
As a reminder, the Kd is a measure of binding affinity in units of concentration. Take B1: in series [1], the Kd is 0.7 ± 0.2 nM. Moreover, the binding result in series [2], in series [3], in series [4], in series [5] and in series [6] was “no binding” throughout.

B2: F5f1_56 (structured_RNA)
RNA: GGGCGACCUCUCCGUACUGACCUACAGAGCGACAUACUAGUGUAUCCAGAUCGCCC
modifications: 2'-fluoro pyrimidines (all C and U)
Regarding B2, the Kd in series [1] was 0.118 ± 0.003 nM.

B3: F5f3 (structured_RNA)
RNA: GGGCUAGCUGAUCGUACCUAGCGUGAAUCCAACACGCUUGACAUGCAAACUGCAUCCAGAUACUAACAGCUAACACCC
modifications: 2'-fluoro pyrimidines (all C and U)
As to B3, in series [1], the Kd was 0.57 ± 0.02 nM.

B4: F5f3_56 (structured_RNA)
RNA: GGGCGACCUAGCGUGAAUCCAACACGCUUGACAUACAAACUGCAUCCAGAUCGCCC
modifications: 2'-fluoro pyrimidines (all C and U)
With B4, the Kd in series [1] is 0.92 ± 0.04 nM.
